Where a chain is given by its changes, count along the chain named. Like-named read-outs stand apart in the source and are kept apart here.
Assays:
menin^M327I = biological target: T1, menin^M327I (Homo sapiens, UniProt O00255, M322I); experiment: ITC binding of MLL1 fragments to menin^M327I
T1 construct: The gene encoding full-length human menin was cloned into a pET32a expression vector; thioredoxin-His6 (cleaved yes); made in house; host or cells: E. coli BL21(DE3)
T1 sequence (O00255 1-610 M322I): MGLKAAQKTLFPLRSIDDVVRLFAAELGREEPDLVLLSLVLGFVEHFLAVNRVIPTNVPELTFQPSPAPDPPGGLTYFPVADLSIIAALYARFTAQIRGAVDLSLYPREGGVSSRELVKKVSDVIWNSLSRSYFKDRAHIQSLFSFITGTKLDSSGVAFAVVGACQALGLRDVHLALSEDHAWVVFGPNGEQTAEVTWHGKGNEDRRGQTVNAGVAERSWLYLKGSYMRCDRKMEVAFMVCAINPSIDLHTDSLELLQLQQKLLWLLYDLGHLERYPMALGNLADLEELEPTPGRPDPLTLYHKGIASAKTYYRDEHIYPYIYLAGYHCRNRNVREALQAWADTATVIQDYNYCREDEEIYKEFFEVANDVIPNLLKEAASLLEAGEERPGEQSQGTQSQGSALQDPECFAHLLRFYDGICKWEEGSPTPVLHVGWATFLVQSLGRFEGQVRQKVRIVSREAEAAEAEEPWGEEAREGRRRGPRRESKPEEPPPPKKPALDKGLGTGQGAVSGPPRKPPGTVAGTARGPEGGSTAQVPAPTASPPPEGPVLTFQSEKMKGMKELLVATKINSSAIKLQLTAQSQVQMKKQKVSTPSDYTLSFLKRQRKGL
Procedure: (§1) Menin and MLL1 fragments were dialyzed at 4 °C against a 50 mM sodium phosphate pH 7.5, 50 mM NaCl, 1 mM TCEP buffer, and degassed prior to measurement. The titrations were performed using the VP-ITC system (MicroCal) at 25 °C. The calorimetric cell, which contained menin (concentrations in the 5–10 μM range), was titrated with the MLL1^160 and MLL1^4-15 derived peptides (concentration range 40–100 μM) injected in 10-μL aliquots. Data was analyzed using Origin 7.0 (OriginLab) to obtain Kd, stoichiometry, entropy, and enthalpy ([2]). Experiments with WT, M327I, T349M, and G331R menin and MLL1^160 or MLL1^4-15 were run in duplicate. Experiments with G331D menin and MLL1^160 were run in duplicate while experiments with G331D and MLL1^4-15 were run in quadruplicate.

menin^WT = biological target: T2, menin^WT (Homo sapiens, UniProt O00255); experiment: ITC binding of MLL1 fragments to menin^WT
T2 construct: Full-length human menin was expressed in BL21(DE3) cells; thioredoxin-His6 (cleaved yes); made in house; host or cells: E. coli BL21(DE3)
T2 sequence (O00255 1-610): T1 sequence (O00255 1-610 M322I) with I322M
Procedure: as §1

[1] = ITC, representative binding isotherm Fig. 1A, 25 °C, read-out: Kd

- Kd (menin^M327I; ITC summary Fig. 1B, values marked *, n = 2, read-out: M327I Kd (nM), ITC): 2.2 ± 0.6 nM
- Kd (menin^M327I; [1]): 2.2 ± 0.6 nM
- Kd (menin^WT; ITC summary Fig. 1B, values marked *, n = 2, read-out: WT Kd (nM), ITC): 0.5 ± 0.3 nM
- Kd (menin^WT; [1]): 0.5 ± 0.2 nM
B1: MLL1^160: N-terminal 160 amino acids of human MLL1, Cys2 mutated to alanine, recombinant (protein)
chain: MAHSARWRFPARPGTTGGGGGGGRRGLGGAPRQRVPALLLPPGPPVGGGGPGAPPSPPAVAAAAAAAGSSGAGVPGGAAAASAASSSSASSSSSSSSSASSGPALLRVGPGFDAALQVSAAIGTNLRRFRAVFGESGGGGGSGEDEQFLGFGSDEEVRVR
modifications: The printed 'Cys2' is the single N-terminal cysteine, Cys5 in the entry (peptide S4-A5-R6); Trx-His6 tag cleaved

Reference: article PMC11490872, “Drug-resistant menin variants retain high binding affinity and interactions with MLL1” (The Journal of Biological Chemistry, 2024)
